Assay results as given in paper PMC4860835, “ALG-2 activates the MVB sorting function of ALIX through relieving its intramolecular interaction” (Cell Discovery, 2015).

Molecular target: T1, ALIX (endogenous, HEK293 cells) (human (endogenous in HEK293), UniProt Q8WUM4 1-868)
T1 construct: also called cytosolic ALIX; AIP1
T1 sequence (looked up): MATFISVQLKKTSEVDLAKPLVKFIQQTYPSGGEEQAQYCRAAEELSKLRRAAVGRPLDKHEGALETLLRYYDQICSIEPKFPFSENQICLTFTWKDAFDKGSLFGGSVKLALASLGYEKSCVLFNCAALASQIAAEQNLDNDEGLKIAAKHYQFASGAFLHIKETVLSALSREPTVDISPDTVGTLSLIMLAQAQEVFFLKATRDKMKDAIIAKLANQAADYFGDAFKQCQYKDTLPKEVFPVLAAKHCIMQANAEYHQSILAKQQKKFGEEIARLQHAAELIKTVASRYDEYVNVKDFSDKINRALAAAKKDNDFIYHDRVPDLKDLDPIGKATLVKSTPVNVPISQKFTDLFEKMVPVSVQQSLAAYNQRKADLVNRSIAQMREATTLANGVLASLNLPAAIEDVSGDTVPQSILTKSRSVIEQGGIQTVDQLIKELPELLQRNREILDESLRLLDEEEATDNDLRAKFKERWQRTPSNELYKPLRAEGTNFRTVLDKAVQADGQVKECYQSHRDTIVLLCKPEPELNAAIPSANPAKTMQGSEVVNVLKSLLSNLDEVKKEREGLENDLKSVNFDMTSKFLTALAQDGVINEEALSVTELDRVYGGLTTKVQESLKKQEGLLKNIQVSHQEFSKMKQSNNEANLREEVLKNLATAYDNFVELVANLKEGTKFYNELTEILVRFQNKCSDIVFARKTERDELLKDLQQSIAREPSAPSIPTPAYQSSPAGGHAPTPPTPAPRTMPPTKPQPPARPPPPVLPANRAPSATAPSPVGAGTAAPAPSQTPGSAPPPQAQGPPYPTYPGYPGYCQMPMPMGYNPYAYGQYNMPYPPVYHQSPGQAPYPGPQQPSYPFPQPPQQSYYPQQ
Assay: co-IP; 0.1% Triton X-100-solubilized HEK293 cell lysates, 10 μM CaCl2 added; control and EGF-stimulated cells (Supplementary Figure S3A)
Conditions: partners not purified

B1: ALG-2 (endogenous, HEK293 cells) (natural protein, human (endogenous in HEK293), UniProt O75340 1-191, looked up)
chain: MAAYSYRPGPGAGPGPAAGAALPDQSFLWNVFQRVDKDRSGVISDTELQQALSNGTWTPFNPVTVRSIISMFDRENKAGVNFSEFTGVWKYITDWQNVFRTYDRDNSGMIDKNELKQALSGFGYRLSDQFHDILIRKFDRQGRGQIAFDDFIQGCIVLQRLTDIFRRYDTDQDGWIQVSYEQYLSMVFSIV
notes: also called endogenous ALG-2; apoptosis-linked gene-2 product; source: endogenous, HEK293 membrane and soluble fractions and 0.1% Triton X-100 lysate
  fold more ALG-2 interacting with ALIX in EGF-stimulated cells than in control cells: 3.5 fold
